From patent US20100129373A1

Columns and labels:
[1] = target: recombinant mouse VEGF (493-MV, R&D systems, USA) (mouse) (UniProt Q00731); experiment: ELISA, Ab 1.56 nM
[2] = target: recombinant mouse VEGF (493-MV, R&D systems, USA) (mouse) (UniProt Q00731); experiment: ELISA, Ab 3.13 nM
[3] = target: recombinant mouse VEGF (493-MV, R&D systems, USA) (mouse) (UniProt Q00731); experiment: ELISA, Ab 50 nM
[4] = target: recombinant mouse VEGF (493-MV, R&D systems, USA) (mouse) (UniProt Q00731); experiment: ELISA, Ab 0.20 nM
[5] = target: recombinant mouse VEGF (493-MV, R&D systems, USA) (mouse) (UniProt Q00731); experiment: ELISA, Ab 25 nM
[6] = target: recombinant mouse VEGF (493-MV, R&D systems, USA) (mouse) (UniProt Q00731); experiment: ELISA, Ab 0.39 nM
[7] = target: recombinant mouse VEGF (493-MV, R&D systems, USA) (mouse) (UniProt Q00731); experiment: ELISA, Ab 0.10 nM
[8] = target: recombinant mouse VEGF (493-MV, R&D systems, USA) (mouse) (UniProt Q00731); experiment: ELISA, Ab 12.5 nM
[9] = target: recombinant mouse VEGF (493-MV, R&D systems, USA) (mouse) (UniProt Q00731); experiment: ELISA, Ab 6.25 nM
[10] = target: recombinant mouse VEGF (493-MV, R&D systems, USA) (mouse) (UniProt Q00731); experiment: ELISA, Ab 0.78 nM
[11] = target: recombinant mouse VEGF (493-MV, R&D systems, USA) (mouse) (UniProt Q00731); experiment: ELISA, Ab 0.049 nM
[12] = target: recombinant human VEGF (293-VE, R&D systems, USA) (human) (UniProt P15692); experiment: ELISA, control IgG 50 nM
[13] = target: T1, recombinant mouse VEGF (493-MV, R&D systems, USA) (mouse) (UniProt Q00731); experiment: ELISA, control IgG 50 nM
T1 sequence (looked up): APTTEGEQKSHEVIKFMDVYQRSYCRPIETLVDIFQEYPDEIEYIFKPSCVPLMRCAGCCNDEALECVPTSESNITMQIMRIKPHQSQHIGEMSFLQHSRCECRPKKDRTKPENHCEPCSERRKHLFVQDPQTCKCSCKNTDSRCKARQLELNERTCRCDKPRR

OD490 [1] | OD490 [2] | OD490 [3] | OD490 [4] | OD490 [5] | OD490 [6] | OD490 [7] | OD490 [8] | OD490 [9] | OD490 [10] | OD490 [11] | OD490 [12] | OD490 [13] | Substance
0.0455 | 0.0489 | 0.695 | 0.0433 | 0.107 | 0.0569 | 0.147 | 0.104 | 0.0424 | 0.0438 | 0.0687 |  |  | Avastin™ (bevacizumab, Genetech), humanized anti-VEGF monoclonal antibody
 |  |  |  |  |  |  |  |  |  |  | 0.052 | 0.0467 | normal human IgG (antibody)
